Molecular target: T1, E. coli methionine aminopeptidase (MetAP), type-1a, N-terminal poly-His-tagged (E. coli, UniProt P0AE18 1-264)
T1 sequence (looked up): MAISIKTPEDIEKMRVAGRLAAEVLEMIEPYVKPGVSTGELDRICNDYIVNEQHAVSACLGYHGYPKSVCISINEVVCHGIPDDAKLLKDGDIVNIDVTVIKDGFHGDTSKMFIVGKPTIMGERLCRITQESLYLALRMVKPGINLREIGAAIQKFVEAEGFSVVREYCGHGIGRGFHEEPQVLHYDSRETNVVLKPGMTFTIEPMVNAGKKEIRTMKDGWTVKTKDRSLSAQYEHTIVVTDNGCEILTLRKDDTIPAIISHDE
Test: cryo-EM structure

binding result: binds
B1: E. coli peptide deformylase (PDF), N-terminal His6-tagged (enzyme, UniProt P0A6K3 1-169, looked up)
chain: MSVLQVLHIPDERLRKVAKPVEEVNAEIQRIVDDMFETMYAEEGIGLAATQVDIHQRIIVIDVSENRDERLVLINPELLEKSGETGIEEGCLSIPEQRALVPRAEKVKIRALDRDGKPFELEADGLLAICIQHEMDHLVGKLFMDYLSPLKQQRIRQKVEKLDRLKARA

— doi:10.1101/312850 (bioRxiv, 2018)
